The target of assay [1] is prostate specific antigen (ABIN572980) (UniProt P07288). Put plainly: in situ ellipsometry, PSA from buffer media.
For assay [2] the target is unchanged. Nature of the assay: in situ ellipsometry on rSAM-SA-anti-PSA sensor, buffer.
The target is the same in assay [3]. Put plainly: ellipsometry; PSA layer formed on rSAM-SA-biotinylated anti-PSA.
Assay [4] has the same target. Nature of the assay: in situ ellipsometry; PSA spiked into 200-fold diluted human serum.
Assay [5] has the same target. Nature of the assay: in situ ellipsometry; 100 pM antigen in borate buffer pH 8 on the antibody-modified rSAM.
Assay [6] concerns the target biotinylated anti-human-serum-albumin antibody. Put plainly: ellipsometry; biotinylated anti-HSA (5 µM) layer on streptavidin-modified rSAM; binding through biotin.
The target in assay [7] is biotinylated prostate specific antigen antibody (ABIN 192197). Nature of the assay: ellipsometry; biotinylated anti-PSA (5 µM) layer on streptavidin-modified rSAM; binding through biotin.

Consider two substances from patent US20200355707A1.

Regarding “biotinylated prostate specific antigen antibody (ABIN 192197)”, the maximum surface coverage in assay [1] came to 2.4 mg/m^2. Also, the detection limit in assay [2] amounted to 40 fM. This substance also had a top layer thickness in assay [3] of 4 nm. Also, the film thickness increase in assay [4] and in assay [5] was 4 nm in each case.

Turning to “streptavidine (from UniProt P22629 37-163)”, the top layer thickness came to 3.4 nm in assay [6] and 4 nm in assay [7].
